Test system: fat grafts (human lipoaspirate)
Assay: In-vivo murine model of adipose tissue reconstruction: lipoaspirate fat graft perfused via silk fibroin-based catheter and osmotic pump
Description: Female athymic nude mice were divided into 3 groups: animals treated with insulin (n=24), dexamethasone (n=15), or PBS vehicle (n=10). The groups were further subdivided into four different doses for insulin (e.g., ˜100 μg, ˜300 μg, ˜650 μg, or ˜1000 μg) or three different doses for dexamethasone (e.g., ˜1 mg/ml, ˜2 mg/ml, ˜3 mg/ml). Osmotic pumps that can deliver a fluid with a selected flow rate for a period of time were prepared with the insulin or dexamethasone solution or PBS vehicle. In this Example, ALZET 4-week osmotic pumps with a selected flow rate of ˜0.11 μl/hr were used. One end of the silk fibroin-based catheter was connected to the pump, e.g., using medical grade silicone (e.g., Dow Corning) (FIG. 8A). The silk catheter/pump construct was primed for 48 hours at 37° C., per manufacturer's instructions.
Lipoaspirate grafts were obtained from human subcutaneous abdominal fat during scheduled elective surgery and processed for injection under laboratory conditions. Lipoaspirate was loaded into ˜1 ml syringes in sterile fashion. Mice were anesthetized with 2% isoflurane in oxygen at the time of the procedure. Once the anesthetic plane was obtained, the animals were prepped for sterile surgery. Each animal received two bilateral ˜500 μl subcutaneous injections of lipoaspirate on the dorsal region, for example, through a 16G Coleman cannula using the fan-injection technique, which uniformly spreads the fat graft created beneath the cutaneous layer. For each animal, one of the two fat grafts received a silk fibroin-based catheter connected to an implantable osmotic pump. The silk catheter/pump was implanted subcutaneously through a small incision between the scapulae, and the fat graft was placed surrounding the silk fibroin-based catheter. The incision for the catheter/pump implantation was closed with a standard wound clip. To prevent and/or reduce pain and discomfort, mice were given subcutaneous injections of ˜5 mg/kg ketoprofen (Fort Dodge Animal Health, Fort Dodge, Iowa) immediately after the surgical procedure and every 24 hours as needed.
At 4 weeks post surgery, the mice were euthanized using carbon dioxide asphyxiation followed by cervical dislocation, and graft tissue was isolated from the bilateral dorsal injection sites. Explants were assessed for mass on a standard laboratory balance, and volume was measured using a gas pycnometer (Accupyc II 1340; Micrometrics, Atlanta, Ga.). Immediately after the dimensional analysis was complete, the tissue samples were fixed in 10% neutral buffered formalin and processed and embedded in paraffin.

| Compound | survival of animals (highest insulin groups, ~1000 μg and ~650 μg) | group (dose) with the highest volume retention (insulin at ~0.11 μL/hr, 28 days post-implantation) [µg] | H&E: cellular response to the silk fibroin-based catheter (insulin doses, 28 days) | deaths (insulin ~300 μg group) | fat retention and adipogenesis (insulin ~300 μg group, 28 days) | H&E: tissue around the silk fibroin-based catheter (insulin ~1000 μg dose, 28 days) | volume retention of fat grafts, statistical significance (insulin ~100, ~300, ~650, ~1000 μg at ~0.11 μL/hr, 28 days post-implantation, gas pycnometry) | fat graft health / biocompatibility (insulin-treated mice, 4 weeks) | dose with the largest effect on fat graft volume (dexamethasone at ~0.11 μL/hr, 28 days post-implantation) [mg/mL] | adverse events during the therapy (mouse, in vivo) |
| --- | --- | --- | --- | --- | --- | --- | --- | --- | --- | --- |
| insulin | generally died during the study period | ~300 | little to no cellular response | no deaths due to drug overdose | trend toward fat retention and adipogenesis | a fibrous tissue was observed to surround the silk fibroin-based catheter | no statistical significance in volume retention | no evidence of oil cysts or adverse biocompatibility reaction | – | – |
| C[C@@H]1C[C@H]2[C@@H]3CCC4=CC(=O)C=C[C@]4(C)[C@@]3(F)[C@@H](O)C[C@]2(C)[C@@]1(O)C(=O)CO [dexamethasone] | – | – | – | – | – | – | – | – | ~2 | no adverse events |
